4 substances from publication PMC5034325 can be followed below.

In this test the target is human taste receptor T1R2-T1R3 (human) (UniProt Q8TE23).
Chain of UniProt Q8TE23 (Q8TE23 20-839, chain 1 of 2): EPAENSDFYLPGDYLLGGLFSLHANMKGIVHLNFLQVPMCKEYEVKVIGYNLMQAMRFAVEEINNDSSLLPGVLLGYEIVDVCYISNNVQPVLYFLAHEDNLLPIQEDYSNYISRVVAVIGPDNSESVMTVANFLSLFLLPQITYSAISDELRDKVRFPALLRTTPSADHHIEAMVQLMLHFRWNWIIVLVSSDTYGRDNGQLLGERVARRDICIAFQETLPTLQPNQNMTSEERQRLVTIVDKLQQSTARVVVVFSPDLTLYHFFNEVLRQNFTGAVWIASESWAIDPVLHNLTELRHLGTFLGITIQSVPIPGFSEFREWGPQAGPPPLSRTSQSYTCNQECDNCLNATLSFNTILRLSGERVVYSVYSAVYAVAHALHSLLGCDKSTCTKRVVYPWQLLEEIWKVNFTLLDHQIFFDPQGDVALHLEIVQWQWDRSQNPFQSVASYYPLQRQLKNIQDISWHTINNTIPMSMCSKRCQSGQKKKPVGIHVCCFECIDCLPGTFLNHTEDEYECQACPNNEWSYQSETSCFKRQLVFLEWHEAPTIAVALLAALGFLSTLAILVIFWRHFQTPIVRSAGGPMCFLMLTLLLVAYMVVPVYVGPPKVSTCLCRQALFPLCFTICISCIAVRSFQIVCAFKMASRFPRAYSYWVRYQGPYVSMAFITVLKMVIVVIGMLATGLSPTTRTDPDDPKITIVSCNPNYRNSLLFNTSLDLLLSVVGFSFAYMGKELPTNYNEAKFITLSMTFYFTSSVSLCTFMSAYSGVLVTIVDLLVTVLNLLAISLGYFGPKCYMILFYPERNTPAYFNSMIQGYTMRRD
Chain of UniProt Q8TE23 (Q7RTX0 21-852, chain 2 of 2, further chain): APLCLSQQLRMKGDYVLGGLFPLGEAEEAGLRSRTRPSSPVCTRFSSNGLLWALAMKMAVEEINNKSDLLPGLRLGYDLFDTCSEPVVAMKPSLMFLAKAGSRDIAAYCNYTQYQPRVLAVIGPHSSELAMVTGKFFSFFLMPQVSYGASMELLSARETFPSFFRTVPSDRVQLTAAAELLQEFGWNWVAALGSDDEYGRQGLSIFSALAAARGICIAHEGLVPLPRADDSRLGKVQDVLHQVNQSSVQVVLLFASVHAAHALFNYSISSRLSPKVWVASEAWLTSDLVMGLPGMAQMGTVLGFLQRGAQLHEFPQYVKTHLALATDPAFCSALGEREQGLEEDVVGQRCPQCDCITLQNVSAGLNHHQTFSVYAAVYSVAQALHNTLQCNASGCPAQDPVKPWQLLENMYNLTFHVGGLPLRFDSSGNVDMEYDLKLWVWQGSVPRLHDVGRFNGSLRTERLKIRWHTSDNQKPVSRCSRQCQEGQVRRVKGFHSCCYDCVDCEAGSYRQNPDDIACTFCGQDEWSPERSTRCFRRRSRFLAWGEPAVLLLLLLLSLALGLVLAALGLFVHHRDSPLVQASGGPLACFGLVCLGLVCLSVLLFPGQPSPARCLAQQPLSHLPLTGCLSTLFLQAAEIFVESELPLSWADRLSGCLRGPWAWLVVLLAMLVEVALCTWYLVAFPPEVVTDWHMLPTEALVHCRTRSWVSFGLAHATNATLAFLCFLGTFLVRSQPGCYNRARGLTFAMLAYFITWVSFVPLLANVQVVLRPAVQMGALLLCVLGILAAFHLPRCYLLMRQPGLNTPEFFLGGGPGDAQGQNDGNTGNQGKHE

The substance Y65R-MNEI (ligand) yielded a sweetness threshold, triangle test by a panel of tasters, 5 to 500 nM (also printed as 0.62 mg/L) of 55 nM.
“E23Q, Q28K, C41S, Y65R-MNEI (Mut3) (ligand)” returned a sweetness threshold, triangle test by a panel of tasters, 5 to 500 nM (also printed as 0.28 mg/L) of 25 nM.
Substance “C41S, Y65R, S67K, D68N-MNEI (Mut1) (ligand)” gave a sweetness threshold, triangle test by a panel of tasters, 5 to 500 nM (also printed as 2.50 mg/L) of 223 nM.
Q28K, C41S, Y65R-MNEI (Mut2) (ligand) displayed a sweetness threshold, triangle test by a panel of tasters, 5 to 500 nM (also printed as 0.40 mg/L) of 36 nM.
